Experimental data reported in the RNAGym collection of RNA variant scans (doi:10.7554/elife.80360).

B1: Twister Ribozyme (parent)
chain: AACACUGCCAAUGCCGGUCCCAAGCCCGGAUAAAAGUGGAGGGGGCGG

Variants of: B1
Assay: self-cleavage, relative activity (ratio to wild type); higher = more cleavage; co-transcriptional

Row | Variant | self-cleavage
1 | AACACUGCCAAUGCCGGGCCGAAGCCCGGAUAAAAGUGGAGGGGGCGG | 0.0716
2 | AAGACUGCCAAUGCCGGUCCCAAGCCCGGAUAAAUGUGGAGGGGGCGG | 0.488
3 | AACACGGCCAAUGCCGGUCCCAAGCCCGGAUAAAAGAGGAGGGGGCGG | 0.112
4 | GACAAUGCCAAUGCCGGUCCCAAGCCCGGAUAAAAGUGGAGGGGGCGG | 0.224
5 | AACACUGCCGAUGCCGGUCCCAAGCCCGGACAAAAGUGGAGGGGGCGG | 0.817
6 | AACAUUGCCAAUGCCGGUCCCAAGCCCGGAUAUAAGUGGAGGGGGCGG | 0.714
7 | AACACUGCCAAUGCCGGUCCCAAGCCCGAAUAAAAGUGGAGGGGGUGG | 0.948
8 | AACACUGCCAAUGCCGGUCCCAACCCCGUAUAAAAGUGGAGGGGGCGG | 0.0988
9 | AAAACUGCCAAUGCCGGUCCCAAGCCCGGAUAAAAGUGGAGGGGGUGG | 0.244
10 | AACACUGCCAAUGCCGGUCCGAAGCCCGGAUAGAAGUGGAGGGGGCGG | 0.03
11 | AACUCUGCCAAUGCCGGUCCCAAGCCCGGAUAAAAGUGGUGGGGGCGG | 0.0743
12 | AACACUGCCAAUGCCGUUCCCAAGCCCGGAUAAAAGUGGAGGGGGUGG | 0.625
13 | AACACUGCCAAUGUCGGUCCCAAGCCCGGAAAAAAGUGGAGGGGGCGG | 0.92
14 | AACACUGCCAAUGCCGGUACCAAGCCCGGAUAAAAGUGGUGGGGGCGG | 0.16
15 | AACACUGCCAAUGCCGGUUCCAAGUCCGGAUAAAAGUGGAGGGGGCGG | 0.623
16 | AACACUGCCAAUGCCGGUCCCAACCCCGGAUAAAAAUGGAGGGGGCGG | 0.115
17 | AACACUGCCAAUGCCGGUCCCAAGCCUGGAUAAAAGUGGAGGAGGCGG | 0.211
18 | AACACUGUCAAUGCCGGUCCCAAGCCCGGAUAAAAGUGGAGGGGGCGU | 0.678
19 | AACACUGCCAAUGCCGGUGCCAAGCCCGGAUAAAAGUGGAUGGGGCGG | 0.104
20 | AACACUGCCAAUGCCGGUCCCAAGCCCGGAUAAACGUGGAGGGGGCGG | 0.962
21 | AACACUGCCAAUGCCGGUCCCAAGCCGGGAUAAAAGUGAAGGGGGCGG | 0.0704
22 | AACACUGCCAAUGCCGGUCCCGAGCCCGGAUAAAAGUGGAGAGGGCGG | 0.0942
23 | AACACUGGCAAUGUCGGUCCCAAGCCCGGAUAAAAGUGGAGGGGGCGG | 0.625
24 | AACACUGCCAAUGCCGGUCCCAUGCCCGGAUAAAGGUGGAGGGGGCGG | 0.17
25 | AACACUACCAAUGCCGGUCCCAAGCCCGGAUAAAAGUGGAGGGGGCGC | 0.457
26 | AACACUGCCAAUGCCGAUCCCAAGCCCGGAUAAAAAUGGAGGGGGCGG | 0.141
27 | AACACUGCCAAUGCCGGUCCCAAGCGCGGAUAAAAGUGGGGGGGGCGG | 0.127

Row | Variant | self-cleavage
28 | UACACUGCCAAUGCCGGUCCCAAGCCCCGAUAAAAGUGGAGGGGGCGG | 0.0644
29 | AACACUGCCAAUGCCUGUCCCAAGCUCGGAUAAAAGUGGAGGGGGCGG | 0.15
30 | AACACUGCCAAUUCCGGUCCCAAGCCCGGAAAAAAGUGGAGGGGGCGG | 0.43
31 | AACACUGCCAAUGCCGGUCCCAAGCUCGCAUAAAAGUGGAGGGGGCGG | 0.0821
32 | CACACUGCCAAUGCCGGUCCCCAGCCCGGAUAAAAGUGGAGGGGGCGG | 0.134
33 | AACCCUGCCAAUGCCGGUGCCAAGCCCGGAUAAAAGUGGAGGGGGCGG | 0.0582
34 | AACACUGUCAAUGCCGGUCCCAAGCCCGGAUAAAAGUGGAGAGGGCGG | 0.127
35 | AACACUGCCAAUACCGGUCCCAAGCCUGGAUAAAAGUGGAGGGGGCGG | 0.482
36 | AACACUGCCAAUGCCGGUCCCAAGCCCGGAUCAAAGUGAAGGGGGCGG | 0.586
37 | AACACUGCCAAUGCCGGUCCCAAGCCCGGAUCAAAGUGUAGGGGGCGG | 0.235
38 | AACACUGCCAAUGCCGGUCCCAAGCCCGGUUAAAAGUGGAGGGGGCAG | 0.927
39 | AACACUGCCAAUGUCGGUCCCAAGCCCGGAUAAAAGUGGAGAGGGCGG | 0.456
40 | CAAACUGCCAAUGCCGGUCCCAAGCCCGGAUAAAAGUGGAGGGGGCGG | 0.193
41 | AACACCGCCAAUGCCGGUACCAAGCCCGGAUAAAAGUGGAGGGGGCGG | 0.104
42 | AACACUGCCAAUGCCGGUCUCAAGCCCGGAUAAAAGAGGAGGGGGCGG | 0.474
43 | AACACUGCCAAUGCCGGUCCCAUGCCCGGAUAAAAGUGGAGGUGGCGG | 0.112
44 | AACACUGCCAAUGCCGGUCCCAUGCCCGGAUAAAAGUGGAGGAGGCGG | 0.118
45 | AACACUGCCAAUGACGGUCCCAAACCCGGAUAAAAGUGGAGGGGGCGG | 0.18
46 | AACACUGCCAAUGCCGGUCCCAAGCCCCGAUACAAGUGGAGGGGGCGG | 0.745
47 | AACUCUGCCAAUGCCGGUCCCAAGCCCGGAUUAAAGUGGAGGGGGCGG | 0.0867
48 | AACACUGCCAAUGCCGGUCCCAAGCCCGGAUAAAUGUGGAGGGGGCCG | 0.694
49 | AACACAGCCAAUGCCGGUCCCAAGCCCGGAUAAAAAUGGAGGGGGCGG | 0.168
50 | AACACUGCCAAUGCCGGUCCCAAGCCCGGAGAAAAGUGGAGGGGGCCG | 0.755
51 | AACACUGCCAAUGCCCGUCCCAAGCCCGGAUAAAAGUAGAGGGGGCGG | 0.676
52 | UACACUGCCAACGCCGGUCCCAAGCCCGGAUAAAAGUGGAGGGGGCGG | 0.0693
53 | AACACUGCCAAUGCCGGUCCCCAGCCCGGAUAAAAGUGGAGUGGGCGG | 0.198
54 | AACAUUGCCAAUGCCGGUCCCAAGGCCGGAUAAAAGUGGAGGGGGCGG | 0.149
